In assay [1] the target is HLA-A*01:01. Nature of the assay: IEDB peptide-MHC binding, purified MHC/competitive/radioactivity; filed as Kd, often an IC50 or EC50 that approximates it; ≥ and ≤ were set here for values at or beyond the usual limits of such assays.
For assay [2], the target named is HLA-A*23:01. Described as above.
For assay [3], the target named is HLA-A*24:02. The assay is described as above.
Assay [4] concerns the target HLA-A*26:01. The description is as above.
Assay [5] concerns the target HLA-A*29:02. The description is as above.
In assay [6] the target is HLA-A*30:02. Described as above.
For assay [7], the target named is HLA-B*44:03. The assay is described as above.
The target in assay [8] is HLA-B*44:02. The description is as above.
The target of assay [9] is HLA-A*11:01. Nature of the assay: IEDB peptide-MHC binding, purified MHC/direct/fluorescence; filed as Kd, often an IC50 or EC50 that approximates it; ≥ and ≤ were set here for values at or beyond the usual limits of such assays. To be noted: source organism: Homo sapiens.
The target of assay [10] is HLA-A*03:01. The assay is described as follows: IEDB peptide-MHC binding, purified MHC/competitive/radioactivity; filed as Kd, often an IC50 or EC50 that approximates it; ≥ and ≤ were set here for values at or beyond the usual limits of such assays. To be noted: source organism: Vaccinia virus WR.
The target of assay [11] is HLA-A*11:01. Described as above. To be noted: source organism: Vaccinia virus WR.
Assay [12] has as its target HLA-A*31:01. Described as above. Particulars: source organism: Vaccinia virus WR.
The target of assay [13] is HLA-A*33:01. The description is as above. Particulars: source organism: Vaccinia virus WR.
In assay [14] the target is HLA-A*68:01. Described as above. To be noted: source organism: Vaccinia virus WR.
The mark [15] stands for this setting: source organism: SARS coronavirus Tor2.
The mark [16] stands for this setting: source organism: Dengue virus 2 Jamaica/1409/1983.
The mark [17] stands for this setting: source organism: Dengue virus 4 Philippines/H241/1956.
The mark [18] stands for this setting: source organism: Influenza A virus (A/Wilson-Smith/1933(H1N1)).
[19] abbreviates: source organism: Dengue virus 3 Sri Lanka/1266/2000.
Where [20] appears, read: source organism: Lassa virus Josiah.
Setting [21] is: source organism: Mammarenavirus brazilense.
Where [22] appears, read: source organism: Mammarenavirus machupoense.
[23] abbreviates: source organism: Mammarenavirus guanaritoense.
Setting [24] is: source organism: Mammarenavirus whitewaterense.

The Kd is the equilibrium constant for the complex coming apart. Turning to VAEMDGIQY, the Kd is 30.8 nM in assay [1] (setting [15]); at least 77800 nM in [2] (setting [15]); at least 77600 nM in [3] (setting [15]); 1270 nM in assay [4] (setting [15]); 58.3 nM in assay [5] (setting [15]); 19.5 nM in assay [6] (setting [15]).
Consider IMLVYCFLGY, for which the Kd was at least 31500 nM in assay [1] (setting [15]); at least 70000 nM in assay [2] (setting [15]); at least 70300 nM in assay [3] (setting [15]); at least 42700 nM in [4] (setting [15]); 3.05 nM in assay [5] (setting [15]); 211 nM in [6] (setting [15]).
Consider TVATSRTLSY, for which the Kd in [1] (setting [15]) is 341 nM; in [2] (setting [15]), at least 70000 nM; in assay [3] (setting [15]) it was at least 70300 nM; in assay [4] (setting [15]) it was 77.9 nM; in [5] (setting [15]), 100 nM; in assay [6] (setting [15]), 822 nM.
Regarding HTLSIHDGY, the Kd in assay [1] (setting [15]) was 1500 nM; in assay [2] (setting [15]), at least 77800 nM; in assay [3] (setting [15]) it was at least 77600 nM; in assay [4] (setting [15]), 16 nM; in assay [5] (setting [15]), 1.79 nM; in [6] (setting [15]), 0.411 nM.
For the sequence MYFHRRDLRL, the Kd was 57.3 nM in assay [2] (setting [16]) and 149 nM in [3] (setting [16]).
Take NYADRRWCF: the Kd was 50.6 nM in assay [2] (setting [16]) and 12.2 nM in assay [3] (setting [16]).
For SELETPNLAE, in [7] (source organism: Dengue virus 1 Singapore/S275/1990), the Kd came to 6330 nM.
As for AEIQPQWIAA, the Kd in [8] (setting [17]) was determined as 67.2 nM; in assay [7] (setting [17]) it was 1120 nM.
Take DQHGRMNYYW: the Kd in [1] (setting [18]) is at least 70400 nM; in assay [2] (setting [18]), 1110 nM; in [3] (setting [18]), 1470 nM; in assay [4] (setting [18]), 661 nM; in [5] (setting [18]), 2170 nM; in assay [6] (setting [18]), at least 69800 nM.
With NTIFTLTVAW, the Kd in assay [4] (setting [19]) was 8780 nM; in assay [8] (setting [19]), 7260 nM; in [7] (setting [19]), at least 23100 nM.
Consider YCNYSKYWYL, for which the Kd in assay [1] (setting [20]) is 9730 nM; in [2] (setting [20]), 1150 nM; in assay [3] (setting [20]), 4440 nM; in assay [4] (setting [20]), at least 69700 nM; in assay [5] (setting [20]), 10800 nM; in assay [6] (setting [20]) it was at least 22700 nM.
Turning to TERSASGGVY, the Kd was 1710 nM in assay [1] (setting [21]); at least 44900 nM in [2] (setting [21]); at least 70300 nM in assay [3] (setting [21]); at least 54600 nM in assay [4] (setting [21]); at least 55500 nM in [5] (setting [21]); 1010 nM in assay [6] (setting [21]).
As for ERPAFGIQK, the Kd in assay [9] is 17500 nM.
Consider SEMGANFRAG, for which the Kd in assay [8] (setting [17]) turned out to be 95 nM; in [7] (setting [17]), 868 nM.
As for LCEEGKVCY, the Kd is 7830 nM in assay [1] (setting [22]); at least 31600 nM in [2] (setting [22]); at least 77500 nM in [3] (setting [22]); at least 77900 nM in assay [4] (setting [22]); at least 45400 nM in [5] (setting [22]); 14200 nM in assay [6] (setting [22]).
For GYRFFNKTL, the results for the Kd in assay [2] (setting [23]), in assay [3] (setting [23]) and in assay [5] (setting [23]) were 210 nM, 1190 nM and 3590 nM, respectively.
Regarding IVNNQESNKY, the Kd in assay [10] was 487 nM; in [11] it was 1650 nM; in assay [5] (source organism: Vaccinia virus WR), at least 32600 nM; in [12], at least 52900 nM; in assay [13], at least 70000 nM; in assay [14], 7540 nM.
Consider TTTIKPVSY, for which the Kd is 286 nM in assay [1] (setting [15]); at least 77800 nM in [2] (setting [15]); at least 77600 nM in assay [3] (setting [15]); 360 nM in [4] (setting [15]); 47.3 nM in assay [5] (setting [15]); 142 nM in assay [6] (setting [15]).
For PYVPMPCMI, the Kd in assay [2] (setting [24]) was 41.7 nM; in assay [3] (setting [24]) it was 57.4 nM; in assay [5] (setting [24]) it was at least 60700 nM.
Take ASFYYIWKSY: the Kd in [1] (setting [15]) was 3110 nM; in assay [2] (setting [15]) it was at least 32100 nM; in assay [3] (setting [15]), at least 28600 nM; in assay [4] (setting [15]), 2100 nM; in [5] (setting [15]), 71.4 nM; in assay [6] (setting [15]), 0.481 nM.

For the origin of these results see the Immune Epitope Database (IEDB).
